According to the supplement of paper PMC10567573:

B1: ANKRD44 (parent)
chain: FHCIETLVTTGANVNETDDWGRTA

Variants of: B1
Assay: protein stability index of a GFP-peptide fusion (GPS, HEK-293T) (PSI 1-6); higher = more stable
Conditions: c terminus: a fixed tail appended
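Note: lentivirally expressed fusions sorted by FACS into six bins by GFP to DsRed ratio, PSI derived from sequencing read proportions per bin multiplied by bin number.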

Row | Variant | protein stability index
1 | FHMIETLVTTGANVNETDDWGRTA [C3M] | 2.31
2 | FHIIETLVTTGANVNETDDWGRTA [C3I] | 1.78
3 | FHPIETLVTTGANVNETDDWGRTA [C3P] | 3.36
4 | FHRIETLVTTGANVNETDDWGRTA [C3R] | 2.47
5 | FHFIETLVTTGANVNETDDWGRTA [C3F] | 2
6 | FHHIETLVTTGANVNETDDWGRTA [C3H] | 2.79
7 | FHGIETLVTTGANVNETDDWGRTA [C3G] | 2.89
8 | FHLIETLVTTGANVNETDDWGRTA [C3L] | 2.05
9 | FHQIETLVTTGANVNETDDWGRTA [C3Q] | 3.03
10 | FHSIETLVTTGANVNETDDWGRTA [C3S] | 2.69
11 | FHTIETLVTTGANVNETDDWGRTA [C3T] | 2.65
12 | FHEIETLVTTGANVNETDDWGRTA [C3E] | 3.96
13 | FHNIETLVTTGANVNETDDWGRTA [C3N] | 2.21
14 | FHWIETLVTTGANVNETDDWGRTA [C3W] | 2.47
15 | FHAIETLVTTGANVNETDDWGRTA [C3A] | 1.79
16 | FHDIETLVTTGANVNETDDWGRTA [C3D] | 3.62
17 | FHVIETLVTTGANVNETDDWGRTA [C3V] | 2.62
18 | FHKIETLVTTGANVNETDDWGRTA [C3K] | 3.8
19 | FHYIETLVTTGANVNETDDWGRTA [C3Y] | 2.19
20 | FNCIETLVTTGANVNETDDWGRTA [H2N] | 3.37
21 | FYCIETLVTTGANVNETDDWGRTA [H2Y] | 1.89
22 | FICIETLVTTGANVNETDDWGRTA [H2I] | 1.62
23 | FTCIETLVTTGANVNETDDWGRTA [H2T] | 3.08
24 | FGCIETLVTTGANVNETDDWGRTA [H2G] | 3.71

Row | Variant | protein stability index
25 | FVCIETLVTTGANVNETDDWGRTA [H2V] | 1.74
26 | FCCIETLVTTGANVNETDDWGRTA [H2C] | 2.05
27 | FMCIETLVTTGANVNETDDWGRTA [H2M] | 2.64
28 | FRCIETLVTTGANVNETDDWGRTA [H2R] | 3.46
29 | FFCIETLVTTGANVNETDDWGRTA [H2F] | 1.8
30 | FWCIETLVTTGANVNETDDWGRTA [H2W] | 1.68
31 | FLCIETLVTTGANVNETDDWGRTA [H2L] | 2.31
32 | FDCIETLVTTGANVNETDDWGRTA [H2D] | 4.54
33 | FPCIETLVTTGANVNETDDWGRTA [H2P] | 3.77
34 | FKCIETLVTTGANVNETDDWGRTA [H2K] | 3.34
35 | FACIETLVTTGANVNETDDWGRTA [H2A] | 2.89
36 | FQCIETLVTTGANVNETDDWGRTA [H2Q] | 3.27
37 | FSCIETLVTTGANVNETDDWGRTA [H2S] | 3.36
38 | FECIETLVTTGANVNETDDWGRTA [H2E] | 3.9
39 | FHCIEELVTTGANVNETDDWGRTA [T6E] | 2.69
40 | FHCIEHLVTTGANVNETDDWGRTA [T6H] | 2.52
41 | FHCIEGLVTTGANVNETDDWGRTA [T6G] | 1.73
42 | FHCIEPLVTTGANVNETDDWGRTA [T6P] | 2.08
43 | FHCIECLVTTGANVNETDDWGRTA [T6C] | 1.75
44 | FHCIEALVTTGANVNETDDWGRTA [T6A] | 2.16
45 | FHCIEFLVTTGANVNETDDWGRTA [T6F] | 2.03
46 | FHCIELLVTTGANVNETDDWGRTA [T6L] | 3.01
47 | FHCIEQLVTTGANVNETDDWGRTA [T6Q] | 2.16
48 | FHCIENLVTTGANVNETDDWGRTA [T6N] | 2.52

Row | Variant | protein stability index
49 | FHCIEMLVTTGANVNETDDWGRTA [T6M] | 2.18
50 | FHCIEDLVTTGANVNETDDWGRTA [T6D] | 3.61
51 | FHCIEKLVTTGANVNETDDWGRTA [T6K] | 1.93
52 | LHCIETLVTTGANVNETDDWGRTA [F1L] | 3.31
53 | SHCIETLVTTGANVNETDDWGRTA [F1S] | 4.04
54 | PHCIETLVTTGANVNETDDWGRTA [F1P] | 4.56
55 | MHCIETLVTTGANVNETDDWGRTA [F1M] | 4.54
56 | DHCIETLVTTGANVNETDDWGRTA [F1D] | 4.81
57 | YHCIETLVTTGANVNETDDWGRTA [F1Y] | 2.07
58 | NHCIETLVTTGANVNETDDWGRTA [F1N] | 4.5
59 | RHCIETLVTTGANVNETDDWGRTA [F1R] | 3.48
60 | QHCIETLVTTGANVNETDDWGRTA [F1Q] | 4.54
61 | KHCIETLVTTGANVNETDDWGRTA [F1K] | 4.18
62 | WHCIETLVTTGANVNETDDWGRTA [F1W] | 3.18
63 | VHCIETLVTTGANVNETDDWGRTA [F1V] | 3.68
64 | HHCIETLVTTGANVNETDDWGRTA [F1H] | 4.18
65 | CHCIETLVTTGANVNETDDWGRTA [F1C] | 2.18
66 | IHCIETLVTTGANVNETDDWGRTA [F1I] | 3.13
67 | EHCIETLVTTGANVNETDDWGRTA [F1E] | 4.77
68 | AHCIETLVTTGANVNETDDWGRTA [F1A] | 4.69
69 | THCIETLVTTGANVNETDDWGRTA [F1T] | 4.25
70 | GHCIETLVTTGANVNETDDWGRTA [F1G] | 4.25
71 | FHCIHTLVTTGANVNETDDWGRTA [E5H] | 2.76
72 | FHCIATLVTTGANVNETDDWGRTA [E5A] | 2.31

Row | Variant | protein stability index
73 | FHCIQTLVTTGANVNETDDWGRTA [E5Q] | 1.48
74 | FHCIKTLVTTGANVNETDDWGRTA [E5K] | 2.14
75 | FHCIWTLVTTGANVNETDDWGRTA [E5W] | 2.26
76 | FHCIGTLVTTGANVNETDDWGRTA [E5G] | 2.11
77 | FHCISTLVTTGANVNETDDWGRTA [E5S] | 1.92
78 | FHCIRTLVTTGANVNETDDWGRTA [E5R] | 1.55
79 | FHCITTLVTTGANVNETDDWGRTA [E5T] | 1.82
80 | FHCIITLVTTGANVNETDDWGRTA [E5I] | 2.98
81 | FHCICTLVTTGANVNETDDWGRTA [E5C] | 2.02
82 | FHCIDTLVTTGANVNETDDWGRTA [E5D] | 2.23
83 | FHCINTLVTTGANVNETDDWGRTA [E5N] | 2.03
84 | FHCIPTLVTTGANVNETDDWGRTA [E5P] | 2.43
85 | FHCIYTLVTTGANVNETDDWGRTA [E5Y] | 3.36
86 | FHCILTLVTTGANVNETDDWGRTA [E5L] | 4.06
87 | FHCMETLVTTGANVNETDDWGRTA [I4M] | 2.16
88 | FHCDETLVTTGANVNETDDWGRTA [I4D] | 3.41
89 | FHCNETLVTTGANVNETDDWGRTA [I4N] | 2.87
90 | FHCWETLVTTGANVNETDDWGRTA [I4W] | 3.86
91 | FHCQETLVTTGANVNETDDWGRTA [I4Q] | 2
92 | FHCPETLVTTGANVNETDDWGRTA [I4P] | 2.19
93 | FHCLETLVTTGANVNETDDWGRTA [I4L] | 2.65
94 | FHCTETLVTTGANVNETDDWGRTA [I4T] | 2.87
